From patent US10975142B2, “Endotrophin neutralization and use thereof” (THE BOARD OF REGENTS OF THE UNIVERSITY OF TEXAS SYSTEM, priority 2013, dated 2021)

Assays:
PyMT mice = assay: high dosage cisplatin in PyMT mice; type: in vivo, mouse; conditions: cisplatin 2.5 mg/kg, ip. twice a week
Procedure: (§1) FIGS. 20A-20C. Endotrophin overexpression confers cisplatin resistance in PyMT mice. FIG. 20A. 10-weeks-aged PyMT and PyMT/endotrophin (PyMT/ETP) mice were given high dosage of cisplatin (2.5 mg/kg, ip., 2 times/week). Tumor growth was determined by caliper measurements. Data represent mean±SD (n=7-10/group). ***p<0.001, PyMT/CIS vs. PyMT/ETP/CIS by 2-way ANOVA. FIGS. 20B-20C. A piece of tumors taken from PyMT (Ctrl-tumor) and PyMT/endotrophin (ETP^+-tumor) mice were implanted into isogenic wild-type hosts. Cisplatin (1 mg/kg, ip., 2 times/week) were injected at 3-weeks post implantation for tumor progression. Tumor volume was determined by caliper measurement. […] Data represent mean±SD (n=7-8/group). *p<0.05 vs. Ctrl-tumors by 2-way ANOVA. Representative images were taken at 70-days post implantation. Scale: 10 mm.

PyMT/endotrophin mice = assay: high dosage cisplatin in PyMT/endotrophin mice; type: in vivo, mouse; conditions: cisplatin 2.5 mg/kg, ip. twice a week
Procedure: as §1

tumors from PyMT mice = assay: allografts of PyMT tumor pieces, cisplatin with TZD or 10B6; type: in vivo; conditions: cisplatin 1 mg/kg every 5 days combined with TZD 20 mg/kg or 10B6 100 μg/mouse once a week; 2-months post implantation
Procedure: FIGS. 22A-22E. Neutralizing endotrophin activities with monoclonal antibodies sensitizes tumors to cisplatin treatment. FIG. 22A. Pieces of tumors from PyMT mice were implanted into wild-type hosts. Tumor-bearing mice were given cisplatin (1 mg/kg, ip., every 5 days) or PBS, combined with either TZD (20 mg/kg) or anti-endotrophin monoclonal antibodies (100 μg/mouse, once a week) for tumor progression. Tumor volumes were determined by caliper measurements. Data represent mean±SD (n=5/group). *p<0.05, **p<0.01, ***p<0.001 vs. Cisplatin by 2-way ANOVA. FIGS. 22B-22D. 4T1 (0.5×10^6/mouse) cells were xenografted in nude mice and monitored tumor growth (FIG. 22B) and metastasis (FIG. 22C). […] Tumor volumes were determined by caliper measurements. […] Metastatic burden was determined by measuring metastatic lesion area in lung tissues with H&E stains. Quantified data represent mean±SD (n=5/group). **p=0.0007 and *p=0.0209 vs. CIS/10B6 by unpaired student t-test. mRNA levels for EMT markers such as vimentin, snail, slug, twist1, twist2 and S100S4 were determined by RT-qPCR (FIG. 22D). […]
As a last step, therapeutic potential of a previously described endotrophin neutralizing antibody (clone 10B6) on cisplatin sensitivity was determined. […] Tumor regression was monitored for 2-months post implantation. […]

[1] = system: diet induced obese (DIO) mice; assay: diet induced obese mice, serum and hepatic lipid parameters; type: in vivo, mouse
Procedure: FIGS. 26A-26G: Endotrophin neutralization improves the metabolic phenotype. FIG. 26A. Two cohorts of mice (n=8) were exposed to high fat diet for 45 days after weaning. At the indicated time points (arrowheads), mice were treated with anti-endotrophin monoclonal antibodies (100 µg/mouse) or equivalent amounts of non-immune antibody. Body weights were monitored. FIG. 26B. Plasma Triglycerides and FIG. 26C. plasma free fatty acids (NEFAs) and FIG. 26D. plasma cholesterol were measured. FIG. 26E. Hepatic triglycerides and FIG. 26F. hepatic cholesterol were measured. Significant differences as indicated by unpaired student t-test. FIG. 26G. […] Scale bar=25 μm.
To evaluate the therapeutic potential of endotrophin neutralizing monoclonal antibodies on lipid parameters, a separate cohort of diet induced obese (DIO) mice were chronically treated with either IgG control or 10B6 (rat anti-mouse endotrophin monoclonal antibody) via intraperitoneal injection at 2 weeks after high-fat diet (HFD) challenge and maintained them on a HFD with antibody treatment for another 4 weeks, similar to the experiment described in FIG. 24.

Molecule	primary tumor growth of PyMT mice (PyMT mice)	response of PyMT/endotrophin mice to cisplatin treatment (PyMT/endotrophin mice)	tumor growth / sensitization of the tumors to cisplatin treatment (tumors from PyMT mice)	hepatic cholesterol levels ([1]; 10B6 vs IgG)	levels of hepatic triglycerides ([1]; 10B6 vs IgG)	levels of serum triglyceride ([1]; 10B6 vs IgG)	serum cholesterol levels ([1]; 10B6 vs IgG)	serum free fatty acids ([1]; 10B6 vs IgG)	hepatic lipid accumulation ([1]; H&E stains, 10B6 vs IgG control)
N.N.[Cl][Pt][Cl] [cisplatin, cis-diammine-dichloro-platinum]	effectively curbed	resistant							
10B6: rat anti-mouse endotrophin monoclonal antibody; light chain variable SEQ ID NO: 2, heavy chain variable SEQ ID NO: 4 (antibody, V domains shown) VH: QVQLQQSGPELAKPGSSVKISCKASGYTFTSYEMHWIKQRPGQGLEWIGYIYPESGSTGYNEKFKGKATLTVDKSSPTAYMQLSSLTPDNSAVYFCTRGLRVLGYVMDVWGHGTSVTVSS VL: DVQLTQSPSFLSASVGDRVTINCKASQNINKYLNWYQQKLGEAPKRLIYNTNNLQTGIPSRFSGSASGTDYTLTISSLHPEDFATYFCLQHSSLYTFGAGTKLELK			efficiently sensitize	comparable	improved	dramatically improved	less affected	dramatically improved	significantly reduced
